Data published in the supplement of paper PMC10567573.

B1: ZNF8 (parent)
chain: RIHTGERPYMCKECGKAFSQNSSL

Variants of: B1
Test: protein stability index of a GFP-peptide fusion (GPS, HEK-293T) (PSI 1-6); higher = more stable
Settings: c terminus: a fixed tail appended
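Further: lentivirally expressed fusions sorted by FACS into six bins by GFP to DsRed ratio, PSI derived from sequencing read proportions per bin multiplied by bin number.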

Protein stability index of substitutions, site by site:
E13: Q 2.24 | R 1.87 | S 1.95 | T 1.96 | V 2.1 | Y 1.92
C14: A 3.1 | D 3.48 | E 3.07 | F 2.65 | G 3.18 | H 2.5 | I 1.93 | K 3.58 | L 2.42 | M 2.29 | N 3.15 | P 2.99 | Q 3 | R 2.51 | S 2.74 | T 2.81 | V 2.72 | W 2.12 | Y 2.2
G15: A 3.37 | C 2.16 | D 3.25 | E 3.46 | F 2.09 | H 2.32 | I 1.98 | K 2.99 | L 3.05 | M 2.67 | N 2.33 | P 2.54 | Q 3.26 | R 2.76 | S 3.2 | T 3.05 | V 2.33 | Y 1.62
K16: A 2.24 | C 1.82 | D 2.52 | E 2.97 | F 2.52 | G 2.41 | H 2.29 | I 2.08 | L 1.71 | M 2.63 | N 1.8 | P 2.06 | Q 2.27 | R 2.3 | S 2.05 | T 2.73 | V 1.71 | W 2.66 | Y 1.61
A17: C 2.46 | D 2.84 | E 2.95 | F 2.42 | G 2.42 | H 2.42 | I 2.41 | K 3 | L 2.47 | M 2.67 | N 2.99 | P 2.09 | Q 3.01 | R 3.04 | S 2.94 | T 3.29 | V 3.24 | W 2.65 | Y 2.37
F18: A 2.93 | C 3.03 | D 3.84 | E 3.64 | G 3.35 | H 3.59 | I 2.53 | K 3.29 | L 2.44 | M 2.76 | N 3.83 | P 3.45 | Q 2.79 | R 3.25 | S 3.57 | T 2.85 | V 2.83 | W 1.99 | Y 2.39
S19: A 2.66 | C 3.28 | D 3.09 | E 3.26 | F 2.02 | G 2.6 | H 2.8 | I 2.01 | K 2.27 | L 3.17 | M 2.24 | N 2.31 | P 1.81 | Q 2.77 | R 1.91 | T 2.35 | V 2 | W 1.47 | Y 2.18
Q20: A 2.65 | C 2.54 | D 2.37 | E 3.19 | F 1.83 | G 2.83 | H 2.49 | I 2.4 | K 2.94 | L 2.1 | M 2.21 | N 2.72 | P 2.74 | R 2.54 | S 2.2 | T 2.61 | V 1.79 | W 2.5 | Y 2.06
N21: A 1.94 | C 2.46 | D 3.08 | E 2.65 | F 1.8 | G 2.71 | H 2.4 | I 2.04 | K 2.75 | L 1.86 | M 2.17 | P 2.44 | Q 2.48 | R 2.26 | S 2.59 | T 2.66 | V 1.4 | W 1.7 | Y 1.5
S22: A 2.49 | C 3.07 | D 2.4 | E 1.98 | F 1.89 | G 2.68 | H 2 | I 1.91 | K 2.4 | L 2.05
